System: MS2 coat protein
Assay: apparent KD of MS2 coat protein; designed switch direction (-1 OFF switch, 1 ON switch): 1; higher = weaker reporter binding
Outline: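 The reported apparent KD is a per-design median over clusters, from curve fits of normalised cluster fluorescence. Protein titrations used SNAP-549-labelled MS2 coat protein, doubled from 0.7 or 1.5 nM to 3 µM, in Tris-HCl pH 7.5 buffer with KCl, MgCl2, BSA, DTT, tRNA and Tween-20, with no input, 200 uM small-molecule ligand, or an oligonucleotide input. The RNA switches were transcribed on Illumina chips by stalled E. coli RNA polymerase.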

[1] = input ligand: microRNA oligo, concentration not stated
[2] = Eterna round: R95, input ligand: microRNA oligo, concentration not stated
[3] = Eterna round: R95, input ligand: FMN 200 uM
[4] = Eterna round: R95, input ligand: none

Row | Sequence | apparent KD of MS2 coat protein (input ligand: FMN 200 uM) | apparent KD of MS2 coat protein [1] | apparent KD of MS2 coat protein (input ligand: none) | apparent KD of MS2 coat protein [2] | apparent KD of MS2 coat protein [3] | apparent KD of MS2 coat protein [4]
1 | GCUCCGCAAUACUUUCACAUGAGGAUCACCCAUGUUCACGUUAAGGAUAUCUAUUGUGAGACAGUAGAGAAGGUAGCGAGCGAC [Eternabot solution 11] (Eterna round: R96, puzzle: Same State NG 3) | 25.7 nM | 15.2 nM | 24.2 nM | – | – | –
2 | UUCGAGUAGCAAGGAUAUCUUAUUUAGAUUUUAAGAGAAGGUGCUUAUUAGAAACAUGAGGAUCACCCAUGUAUUACUUCUUAU [JR_SSNG1_Sub066] (Eterna round: R96, puzzle: Same State NG 1) | 14.1 nM | 13.8 nM | 20.1 nM | – | – | –
3 | GCCAUCGCAUGAGGAUAUGGCACCGAAACGGUGCCAGAAGGCAUGUCGAAUGACAUGAGGAUCACCCAUGUAGUAUAGAUGGCA [Mat - Same State NG 1 - JL mod - D92] (Eterna round: R96, puzzle: Same State NG 1) | 52.9 nM | 571 nM | 628 nM | – | – | –
4 | GAAAGGCCUACAGGAUAUACCACAGUCUUGUCGGUAGAAGGGUGGGACAUGAGGAUCACCCAUGUACACUCCCAGAUGGGAGUG [Ergeesis] (Eterna round: R96, puzzle: Same State NG 1) | 767 nM | 135 nM | 476 nM | – | – | –
5 | GUUAGGAAUCUAGCAUACAUGAGGAUCACCCAUGUAAGUGGGAAGGAUAUGGUACAGAAACUGUACCAGAAGGUCUUAUUAAUU [Omei SS(NG) 3 A] (Eterna round: R96, puzzle: Same State NG 3) | 65.3 nM | 80.4 nM | 63.1 nM | – | – | –
6 | GCGAGCGUACUUGCAACAUGAGGAUCACCCAUGUUAACUGGACAGGAUAUGGUACCGUUUCGGUACCAGAAGGGUUCAUCAUGU [JL SSNG3 3.67] (Eterna round: R96, puzzle: Same State NG 3) | 74.1 nM | 147 nM | 183 nM | – | – | –
7 | UGGCUCAGACGAGGAUAUGAUCAUGGCGCUUCGGCGCAUACAUGAGGAUCACCCAUGUAAAGUGAUCAGAAGGCGUCUGAGCCA [SSNG2/7-A2] (Eterna round: R96, puzzle: Same State NG 2) | 13.2 nM | 11.6 nM | 17.7 nM | – | – | –
8 | ACAUGAAAUACAGGAUAUUUUGUACCUACAUGUGACAUGAGGAUCACCCAUGUGGUAAGUAUAAGAGAGAAGGGUAAGAUAUGU [Equivalence 4 - Jieux - Same State NG 2] (Eterna round: R96, puzzle: Same State NG 2) | 50.1 nM | 43.8 nM | 66.4 nM | – | – | –
9 | AUAUGAGGAGCAGGAUAUGCGGAGAAGAAAGAAGCAGAAGGGCUCAUGGGACGACAUGAGGAUCACCCAUGUACUCCGCGAUGA [AK SSNG1-V2-5] (Eterna round: R96, puzzle: Same State NG 1) | 103 nM | 520 nM | 1350 nM | – | – | –
10 | GGUAGGUUACUACCAAACAUGAGGAUCACCCAUGUAAAUGGGAAGGAUAUGGUACCUAUUUGGUACCAGAAGGUCCAAUUAAUU [JL Fiskers NG3ss - 2 mod 2] (Eterna round: R96, puzzle: Same State NG 3) | 670 nM | 1720 nM | 4550 nM | – | – | –
11 | GAUUCACAUGAGGAUCACCCAUGUCGUUUAAUGGGAGGAUAUACGUGGACCGUAGUCCGCGUAGAAGGCCUAAUUG [Mat - Same State 1 - Mod of JL - D24] (puzzle: Same State 1) | – | – | – | 74.4 nM | – | –
12 | CUCAACAACACAGGAUAUCCAGGGAAAAGAACUGGAGAAGGGUGACCAACAUGAGGAUCACCCAUGUGAUAGCUAGGCUGUCUG [Lararariso] (Eterna round: R96, puzzle: Same State NG 1) | 24 nM | 191 nM | 1300 nM | – | – | –
13 | GGAGCCAAGGCAGGAUAUUCAUUUAAAUAAACAUGAGGAUCACCCAUGUAGGCCAGAAGGCCUUGGGAGAAGGGCCAUGGCUCG [Xeonanis - 13 mod7] (Eterna round: R96, puzzle: Same State NG 2) | 17.7 nM | 72.8 nM | 88.1 nM | – | – | –
14 | GUUACAUGAGGAUCACCCAUGUAUGUGUGGGAGUAAGUGUCUUAGGAUAUCUAUCAUUUAAUUAAAGAGAAGGAAGAUUGUUGU [JMF's solution 98] (Eterna round: R96, puzzle: Same State NG 3) | 86.9 nM | 87.3 nM | 113 nM | – | – | –
15 | GUAGCAUACCGAGGAUAUUCAUAAUACAUGAGGAUCACCCAUGUUAAUAAUAGGCGAAAGCCUUGGGAGAAGGCGGAAUGCUAC [Xeonanis - 20 Mod69] (Eterna round: R96, puzzle: Same State NG 2) | 11.4 nM | 9.05 nM | 16.2 nM | – | – | –
16 | UUAGUCAUGUAAGGAUAUGCAGCCGAAACGGCUGCAGAAGGUACUAUAAUUACAUGAGGAUCACCCAUGUUAUAAAAUAAAUAU [Mat - Same State NG 1 - JL mod - D63] (Eterna round: R96, puzzle: Same State NG 1) | 22.9 nM | 25.6 nM | 48 nM | – | – | –

Row | Sequence | apparent KD of MS2 coat protein (input ligand: FMN 200 uM) | apparent KD of MS2 coat protein [1] | apparent KD of MS2 coat protein (input ligand: none) | apparent KD of MS2 coat protein [2] | apparent KD of MS2 coat protein [3] | apparent KD of MS2 coat protein [4]
17 | UUUAGUAGCGGGCAGGAUAUGUAUUAAAAUACAUGAGGAUCACCCAUGUGCGGGUAUAACACCCGACAGAAGGGCCAAUCGCUAC [Laonerce - 8] (puzzle: Same State 2) | – | – | – | 162 nM | 22.3 nM | 237 nM
18 | UCAGUCAUGUAAGGAUAUGCAGCCGAAACGGCUGCAGAAGGUACUAUAAUUACAUGAGGAUCACCCAUGUUAUAAAAUUUAUAU [Mat - Same State NG 1 - JL mod - D64] (Eterna round: R96, puzzle: Same State NG 1) | 24.4 nM | 44.9 nM | 58.8 nM | – | – | –
19 | GGAAUAUGAUGUUACAUGAGGAUCACCCAUGUAGUAAUAACUAAGGAUAUCUGAAAAGGAGGAGAAGAGAAGGUAGGAUCAUAA [AK SSNG3-V2-10.1] (Eterna round: R96, puzzle: Same State NG 3) | 13.3 nM | 22.5 nM | 33.3 nM | – | – | –
20 | AUUGGGUAACGAGGAUAUCGUUUUUGUUUUCUUCGAGAAGGCGUUAUAGUUUAUUUCUAUUGUUACAUGAGGAUCACCCAUGUU [JR_SSNG1_Sub054] (Eterna round: R96, puzzle: Same State NG 1) | 15.2 nM | 16.5 nM | 24.1 nM | – | – | –
21 | GGAGGACAUGAGGAUCACCCAUGUGGAUGAUCGCUAGGAUAUGCGUGCGGGAGGAGUGGUGCAGAAGGAGUGGGAU [JR_SS1_Sub049] (puzzle: Same State 1) | – | – | – | 188 nM | – | –
22 | GCUCUACAUGAGGAUCACCCAUGUCCAUCCGCACGAGGAUAUGCAUGGGCGAAAGCUGGUGCAGAAGGCGUGGGAC [Tr3Pin] (puzzle: Same State 1) | – | – | – | 409 nM | – | –
23 | AAUUAUUAACAUGAGGAUCACCCAUGUAUUUUUUGCUCGUCAUGUAUUAUUAUUAUUAUUAUUAUUAUUAUUAUUAA [my first RNA] (puzzle: Sensor for hsa-mir-208a version 2) | – | – | – | 17.1 nM | 26.8 nM | 37.8 nM
24 | GUACAGAUCACAGGAUAUCACGUCGAUUAGACGUGAGAAGGGUGAUCACACAUGAAUAUUAAUACAUGAGGAUCACCCAUGUAC [SSNG1/16-A2] (Eterna round: R96, puzzle: Same State NG 1) | 65.6 nM | 22.5 nM | 30.6 nM | – | – | –
25 | AAUUAAGAUCAAGGAUAUCACGUCGAUUAGACGUGAGAAGGUGAUAAUUACAUGAGGAUCACCCAUGUAUAACAUGAAUUAAUU [SSNG1/9-B2] (Eterna round: R96, puzzle: Same State NG 1) | 31.8 nM | 23.9 nM | 33.5 nM | – | – | –
26 | GGACCCUUCGGAGGAUAUUCUCAGUAACAGUAAGAAGAAGGCCGUAAGUCAUACGCGCGUUACAUGAGGAUCACCCAUGUGUGG [Eternabot solution 47] (Eterna round: R96, puzzle: Same State NG 1) | 149 nM | 150 nM | 333 nM | – | – | –
27 | GUUAAGAACUAAGGAUAUUGAAUACAUAUGUUUAACAUGAGGAUCACCCAUGUGGGUUGCGGUAUCGAGAAGGUAGAAUAAUAG [Mat - same State NG 2 - JL mod - D93] (Eterna round: R96, puzzle: Same State NG 2) | – | 89.8 nM | – | – | – | –
28 | AGGCAAGCUUUUUGCUGGUAUGAAGGAGAACAUGAGGAUCACCCAUGUAUUAGAGGUGUAGAGGAUUUGAGAAAGAA [JR_SHM208A_Sub003] (puzzle: Sensor for hsa-mir-208a) | – | – | – | 91.8 nM | 96.8 nM | 134 nM
29 | UUAGAAUACGCAGGAUAUCGAUGAUUGAUAGUACGAGAAGGGCGAACAUGAGGAUCACCCAUGUAUAUUAAUUUGAGUUUGAAU [JR_SSNG1_Sub076] (Eterna round: R96, puzzle: Same State NG 1) | 69.4 nM | 120 nM | 214 nM | – | – | –
30 | UUUAGUGGCGGGCAGGAUAUGUAUUAAAAUACAUGAGGAUCACCCAUGUGCGGGUAUAACACCCGACAGAAGGGCCAAUCGCUAC [Laonerce - 7] (puzzle: Same State 2) | – | – | – | 275 nM | 20.9 nM | 397 nM
31 | CCAUAACAGUGAGGAUAUCGUUGCGAUAAGUGACGAGAAGGCAUUCAUGUGAAAUAAACAUACAUGAGGAUCACCCAUGUUGUA [Omei SS(NG)1 B] (Eterna round: R96, puzzle: Same State NG 1) | 18.2 nM | 17.1 nM | 20.6 nM | – | – | –
